# In US20260327324 (published 2026):
# T1: MSLN (UniProt Q13421)
# T1 chain: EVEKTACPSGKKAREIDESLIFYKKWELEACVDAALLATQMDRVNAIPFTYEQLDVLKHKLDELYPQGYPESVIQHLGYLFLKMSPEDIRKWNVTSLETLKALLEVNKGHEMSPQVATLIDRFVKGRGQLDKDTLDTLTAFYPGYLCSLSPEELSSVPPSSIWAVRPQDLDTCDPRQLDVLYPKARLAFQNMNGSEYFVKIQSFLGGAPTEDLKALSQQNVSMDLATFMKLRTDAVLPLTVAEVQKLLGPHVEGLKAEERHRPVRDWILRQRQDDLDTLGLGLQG
# Target: PD-L1 (UniProt Q9NZQ7)
# Assay: SPR
# PD-L1, sequence (Q9NZQ7 19-238): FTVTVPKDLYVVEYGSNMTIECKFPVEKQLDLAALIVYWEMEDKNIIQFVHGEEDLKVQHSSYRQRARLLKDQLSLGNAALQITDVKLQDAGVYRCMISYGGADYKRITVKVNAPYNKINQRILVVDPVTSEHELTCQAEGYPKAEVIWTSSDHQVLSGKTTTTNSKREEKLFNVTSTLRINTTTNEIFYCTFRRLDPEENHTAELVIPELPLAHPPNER
row,binding result,Binder
1,no binding,PRO3477 (37-20-B03-sc09.1 human consensus LCDR2) (antibody) DIQMTQSPASLSASVGDRVTITCQASQSIGTYLAWYQQKPGKPPKLLIYAASSLQSGVPSRFSGSGSGTDFTLTISSLQPEDFATYYCQSNFYSDSTTIGPNAFGTGTKVTVLGGGGGSGGGGSGGGGSGGGGSEVQLVESGGGLVQPGGSLRLSCAASGFSFNSDYWIYWVRQAPGKGLEWIASIYGGSSGNTQYASWAQGRFTISRDNSKNTVYLQMNSLRAEDTAVYFCARGYVDYGGATDLWGQGTLVTVSS

# Target: T1, MSLN
# Assay: SPR
row,Kd,Binder
1,0.172 nM,PRO3732 (54-21-H03-sc01 A67G_S68G) (antibody) DIQMTQSPSSLSASVGDRVTITCQASESIYSSLAWYQQKPGKAPKLLIYLGGTLASGVPSRFSGSGSGTDFTLTISSLQPEDFATYYCQSTDYTTSTHRNSFGTGTKVTVLGGGGGSGGGGSGGGGSGGGGSEVQLVESGGGLVQPGGSLRLSCAASGFSFSTTYYMCWVRQAPGKGLEWIGCTNTASSVRTYYATWAKGRFTISRDNSKNTVYLQMNSLRAEDTAVYYCARDMGFADYALNLWGQGTLVTVSS
2,0.151 nM,PRO1922 (54-21-H03-sc01) (antibody) DIQMTQSPSSLSASVGDRVTITCQASESIYSSLAWYQQKPGKAPKLLIYLASTLASGVPSRFSGSGSGTDFTLTISSLQPEDFATYYCQSTDYTTSTHRNSFGTGTKVTVLGGGGGSGGGGSGGGGSGGGGSEVQLVESGGGLVQPGGSLRLSCAASGFSFSTTYYMCWVRQAPGKGLEWIGCTNTASSVRTYYATWAKGRFTISRDNSKNTVYLQMNSLRAEDTAVYYCARDMGFADYALNLWGQGTLVTVSS
3,1.58 nM,PRO3733 (54-32-A07-sc06 G51C_T141C A67G_S68G) (antibody) ALQMTQSPSSLSARVGDRVTIKCQASQSISNYLAWYQQKPGKPPKFLIYDGGDLASGVPSRFSGSGSGRDFTLTISSLQPEDFATYYCQQVYDSNNVENVFGCGTKVTVLGGGGGSGGGGSGGGGSGGGGSQSQLVESGGGLVQPGGSLRLSCAVSGFSLSSYAMGWVRQAPGKCLEYIGYISKIGTTYYASWAKGRFTISKDNSKNTVYLQMNSLRAEDTAVYFCARGSSSGGYLDDGFDPWGQGTLVTVSS
4,0.561 nM,PRO2309 (54-32-A07-sc06 G51C_T141C) (antibody) ALQMTQSPSSLSARVGDRVTIKCQASQSISNYLAWYQQKPGKPPKFLIYDASDLASGVPSRFSGSGSGRDFTLTISSLQPEDFATYYCQQVYDSNNVENVFGCGTKVTVLGGGGGSGGGGSGGGGSGGGGSQSQLVESGGGLVQPGGSLRLSCAVSGFSLSSYAMGWVRQAPGKCLEYIGYISKIGTTYYASWAKGRFTISKDNSKNTVYLQMNSLRAEDTAVYFCARGSSSGGYLDDGFDPWGQGTLVTVSS

# Target: HSA (human, UniProt P02768)
# Assay: SPR
row,Kd,Binder
1,0.174 nM,PRO4112 (19-04-A10-sc11) (antibody) AFQLTQSPSSLSASVGDRVTITCQASESINSRLAWYQQKPGKPPKLLIYDASDLTSGVPSRFSGRGSGTDFTLTISSLQPEDFATYYCQGYGGSSTTTFGCGTKVTVLGGGGGSGGGGSGGGGSGGGGSQQLVESGGGLVQPGGSLRLSCAASGFSLSSYAMNWVRQAPGKCLEWIGHINAGDIAYYATWAKGRFTISKDNSKNTVYLQMNNLRAEDSAVYFCARGAGGFSTGPFKLWGQGTLVKVSS
2,0.0901 nM,PRO4113 (19-04-A10-sc12) (antibody) AFQLTQSPSSLSASVGDRVTITCQASESINSRLAWYQQKPGKPPKLLIYDASDLTSGVPSRFSGRGSGTDFTLTISSLQPEDFATYYCQGYGGSSTTTFGCGTKVTVLGGGGGSGGGGSGGGGSGGGGSQSVVESGGGLVQPGGSLRLSCAASGFSLSSYAMNWVRQAPGKCLEWIGHINAGDIAYYATWAKGRFTISKDNSKNTVYLQMNSLRAEDSAVYFCARGAGGFSTGPFKLWGQGTLVKVSS
3,2.62 nM,PRO2155 (19-04-A10-sc02) (antibody) AFELTQSPSSLSASVGDRVTITCQASESINSRLAWYQQKPGQPPKLLIYDASDLTSGVPSRFSGSGSGTDFTLTISSLQPEDFATYYCQGYGGSSTTTFGGGTKLTVLGGGGGSGGGGSGGGGSGGGGSEVQLVESGGGLVQPGGSLRLSCAASGFSLSSYAMNWVRQAPGKGLEWIGHINAGDIAYYATWAKGRFTISRDNSKNTVYLQMNSLRAEDTAVYFCARGAGGFSTGPFKLWGQGTLVTVSS

# Target: PD-L1 (UniProt Q9NZQ7)
# Assay: SPR
# Remark: another data set of the same source
row,Kd,Binder
1,491 nM,PRO1434 (33-03-G02 Q108A_G109A) (antibody) DIQMTQSPSSLSASVGDRVTITCQASQSINDYLAWYQQKPGKAPKLLIYKASTLASGVPSRFSGSGSGTDFTLTISSLQPEDFATYYCQAAYIITDIDNVFGTGTKVTVLGGGGGSGGGGSGGGGSGGGGSQVQLQESGPGLVKPSETLSLTCKVSGFSFSSGYDMCWIRQPPGKGLEWIGCVVAGSVDITYYASWAKGRVTISVDSSKNQFSLKLSSVTAADTAVYYCARKDAYSDAFNLWGQGTLVTVSS
2,491 nM,PRO3725 (33-03-G02 Q108A_G109A A67G_F68G) (antibody) DIQMTQSPSSLSASVGDRVTITCQASQSINDYLAWYQQKPGKAPKLLIYKGGTLASGVPSRFSGSGSGTDFTLTISSLQPEDFATYYCQAAYIITDIDNVFGTGTKVTVLGGGGGSGGGGSGGGGSGGGGSQVQLQESGPGLVKPSETLSLTCKVSGFSFSSGYDMCWIRQPPGKGLEWIGCVVAGSVDITYYASWAKGRVTISVDSSKNQFSLKLSSVTAADTAVYYCARKDAYSDAFNLWGQGTLVTVSS
3,0.0109 nM,PRO1347 (37-20-B03 sc09-IF) (antibody) IQMTQSPASLSASVGDRVTITCQASQSIGTYLAWYQQKPGKPPKLLIYRAFILASGVPSRFSGSGSGTDFTLTISSLQPEDFATYYCQSNFYSDSTTIGPNAFGTGTKVTVLGGGGGSGGGGSGGGGSGGGGSEVQLVESGGGLVQPGGSLRLSCAASGFSFNSDYWIYWVRQAPGKGLEWIACIYGGSSGNTQYASWAQGRFTISRDNSKNTVYLQMNSLRAEDTAVYFCARGYVDYGGATDLWGQGTLVTVSS
4,0.196 nM,PRO4125 (37-20-B03 sc17 A67G_F68G) (antibody) DIQMTQSPSSLSASVGDRVTITCQASQSIGTYLAWYQQKPGKPPKLLIYRGGILASGVPSRFSGSGSGTDFTLTISSLQPEDFATYYCQSNFYSDSTTIGPNAFGTGTKVTVLGGGGGSGGGGSGGGGSGGGGSQSLVESGGGLVQPGGSLRLSCAASGFSFNSDYWISWVRQAPGKGLEWIASIYGGSSGNTQYASWAQGRFTISKDNSKNTVYLQMNSLRAEDTAVYFCARGYVDYGGATDLWGQGTLVTVSS

# Target: ROR1 (UniProt Q01973)
# Sequence (Q01973 30-403): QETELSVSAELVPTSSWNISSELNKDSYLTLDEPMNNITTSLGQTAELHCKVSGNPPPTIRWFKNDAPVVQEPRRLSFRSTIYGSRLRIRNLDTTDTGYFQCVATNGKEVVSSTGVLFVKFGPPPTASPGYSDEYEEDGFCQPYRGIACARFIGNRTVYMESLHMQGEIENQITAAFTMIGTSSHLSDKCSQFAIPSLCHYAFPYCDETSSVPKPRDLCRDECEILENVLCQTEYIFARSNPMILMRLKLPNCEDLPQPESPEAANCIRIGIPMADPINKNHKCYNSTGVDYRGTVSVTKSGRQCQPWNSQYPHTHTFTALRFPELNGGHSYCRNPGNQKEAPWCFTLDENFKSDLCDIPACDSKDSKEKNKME
# Assay: SPR
row,Kd,Binder
1,0.336 nM,PRO3735 (55-38-D07-sc02 A67G_S68G) (antibody) DVQMTQSPSSLSASVGDRVTITCRASENIYSGLAWYQQKPGKPPKLLIYRGGTLASGVSSRFSGSGSGTDFTLTISSLQPEDFATYYCQGGYYSSSSTYIAFGTGTKVTVLGGGGGSGGGGSGGGGSGGGGSQSQVVESGGGLVQPGGSLRLSCAVSGFDLSSYAVSWVRQAPGKGLEWIGIIYPRANTYYASWAKGRFTISKDNSKNTVYLQMNSLRAEDTAVYFCARDRYDSGAYLYTTYFNLWGQGTLVTVSS
2,0.212 nM,PRO4139 (55-38-D07-sc09 A67G_S68G) (antibody) DVQMTQSPSSLSASVGDRVTITCRASENIYSGLAWYQQKPGKPPKLLIYRGGTLASGVSSRFSGSGSGTDFTLTISSLQPEDFATYYCQGGYYSSSSTYIAFGTGTKVTVLGGGGGSGGGGSGGGGSGGGGSQSVVESGGGLVQPGGSLRLSCAVSGFDLSSYAVSWVRQAPGKGLEWIGIIYPRANTYYASWAKGRFTISKDNSKNTVYLQMNSLRAEDSAVYFCARDRYDSGAYLYTTYFNLWGQGTLVKVSS
3,0.631 nM,PRO4143 (55-38-D07-sc09 G51C A67G_S68G_T141C) (antibody) DVQMTQSPSSLSASVGDRVTITCRASENIYSGLAWYQQKPGKPPKLLIYRGGTLASGVSSRFSGSGSGTDFTLTISSLQPEDFATYYCQGGYYSSSSTYIAFGCGTKVTVLGGGGGSGGGGSGGGGSGGGGSQSVVESGGGLVQPGGSLRLSCAVSGFDLSSYAVSWVRQAPGKCLEWIGIIYPRANTYYASWAKGRFTISKDNSKNTVYLQMNSLRAEDSAVYFCARDRYDSGAYLYTTYFNLWGQGTLVKVSS
4,0.122 nM,PRO4135 (55-38-D07-sc09) (antibody) DVQMTQSPSSLSASVGDRVTITCRASENIYSGLAWYQQKPGKPPKLLIYRASTLASGVSSRFSGSGSGTDFTLTISSLQPEDFATYYCQGGYYSSSSTYIAFGTGTKVTVLGGGGGSGGGGSGGGGSGGGGSQSVVESGGGLVQPGGSLRLSCAVSGFDLSSYAVSWVRQAPGKGLEWIGIIYPRANTYYASWAKGRFTISKDNSKNTVYLQMNSLRAEDSAVYFCARDRYDSGAYLYTTYFNLWGQGTLVKVSS
5,0.119 nM,PRO2060 (55-38-D07-sc02) (antibody) VQMTQSPSSLSASVGDRVTITCRASENIYSGLAWYQQKPGKPPKLLIYRASTLASGVSSRFSGSGSGTDFTLTISSLQPEDFATYYCQGGYYSSSSTYIAFGTGTKVTVLGGGGGSGGGGSGGGGSGGGGSQSQVVESGGGLVQPGGSLRLSCAVSGFDLSSYAVSWVRQAPGKGLEWIGIIYPRANTYYASWAKGRFTISKDNSKNTVYLQMNSLRAEDTAVYFCARDRYDSGAYLYTTYFNLWGQGTLVTVSS
6,0.108 nM,PRO2062 (55-39-G02-sc02) (antibody) AQQLTQSPSSLSASVGDRVTITCQASQNVWNNNYLSWFQQKPGKPPKLLIVTASTLASGVSSRFSGSGSGTDFTLTISSLQPEDFATYYCAGGFSGEIRAFGTGTKVTVLGGGGGSGGGGSGGGGSGGGGSQSQLVESGGGLVQPGGSLRLSCAVSGLSLSRNAMSWVRQAPGKGLEWIGIILTSGSTYYASWAKGRFTISKDNSKNTVYLQMNSLRAEDTAVYFCVRGIASSSLKSFWGQGTLVTVSS
7,0.12 nM,PRO3734 (55-39-G02-sc02 A67G_S68G) (antibody) AQQLTQSPSSLSASVGDRVTITCQASQNVWNNNYLSWFQQKPGKPPKLLIVTGGTLASGVSSRFSGSGSGTDFTLTISSLQPEDFATYYCAGGFSGEIRAFGTGTKVTVLGGGGGSGGGGSGGGGSGGGGSQSQLVESGGGLVQPGGSLRLSCAVSGLSLSRNAMSWVRQAPGKGLEWIGIILTSGSTYYASWAKGRFTISKDNSKNTVYLQMNSLRAEDTAVYFCVRGIASSSLKSFWGQGTLVTVSS
